One experiment deals with T1, NK92 cells (Homo sapiens, UniProt O95256+Q13478).
T1 sequence (Q13478 19-541): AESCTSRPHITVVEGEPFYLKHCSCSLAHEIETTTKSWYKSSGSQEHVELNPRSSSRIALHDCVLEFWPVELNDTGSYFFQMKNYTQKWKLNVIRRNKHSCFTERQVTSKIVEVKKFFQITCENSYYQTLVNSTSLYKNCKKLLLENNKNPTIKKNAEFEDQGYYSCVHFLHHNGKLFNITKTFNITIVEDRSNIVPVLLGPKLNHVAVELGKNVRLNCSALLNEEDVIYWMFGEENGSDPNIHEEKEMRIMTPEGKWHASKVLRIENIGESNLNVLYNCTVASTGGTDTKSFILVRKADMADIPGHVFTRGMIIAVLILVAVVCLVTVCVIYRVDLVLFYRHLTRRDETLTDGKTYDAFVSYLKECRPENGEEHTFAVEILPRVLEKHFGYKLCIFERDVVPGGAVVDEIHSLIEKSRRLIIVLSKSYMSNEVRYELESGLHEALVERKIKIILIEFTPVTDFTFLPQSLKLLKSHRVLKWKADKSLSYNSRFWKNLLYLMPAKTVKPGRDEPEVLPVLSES
T1 sequence (O95256 20-599): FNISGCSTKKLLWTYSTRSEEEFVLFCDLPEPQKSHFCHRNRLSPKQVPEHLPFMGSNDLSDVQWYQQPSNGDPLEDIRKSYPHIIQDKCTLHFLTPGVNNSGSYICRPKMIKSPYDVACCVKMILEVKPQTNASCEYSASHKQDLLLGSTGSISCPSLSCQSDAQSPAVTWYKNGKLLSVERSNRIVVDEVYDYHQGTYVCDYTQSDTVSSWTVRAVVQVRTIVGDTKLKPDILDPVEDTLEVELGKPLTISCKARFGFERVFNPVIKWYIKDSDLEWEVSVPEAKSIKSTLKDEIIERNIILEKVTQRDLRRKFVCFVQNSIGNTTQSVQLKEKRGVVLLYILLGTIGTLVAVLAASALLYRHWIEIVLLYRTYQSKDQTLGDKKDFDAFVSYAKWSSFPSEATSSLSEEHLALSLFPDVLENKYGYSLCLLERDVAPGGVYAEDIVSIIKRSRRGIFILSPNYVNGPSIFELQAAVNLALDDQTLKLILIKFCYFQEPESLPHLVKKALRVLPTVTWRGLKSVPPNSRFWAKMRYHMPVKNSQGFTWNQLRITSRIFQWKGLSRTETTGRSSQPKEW
Kind of experiment: IFN gamma secretion assay in NK92 cells (Example 10). The class given is cell-based. The conditions noted are these: 1 ng/ml IL-12, 16-20 h, read-out: EC50 IFNγ secretion NK92 assay. The method, then:
The IFNγ-secretion stimulating activity of the unconjugated IL-18 variants and corresponding IL-18 immunocytokines was evaluated on NK92 cell line. The NIK cell line NK-92 derived from a patient with lymphoma (ATCC, Cat #CRL-2407) was cultured in aMIEM medium supplemented with 12.5% FCS, 12.5% horse serum (HS), 50 uM B-mercaptoEthanol, and 2 ng/ml of recombinant Human Interleukin-2 (IL-2).
On the day of experiment, cells were harvested and washed with aNMEM medium without IL-2 and resuspended in medium (w/o IL-2) containing 1 ng/ml of recombinant human Interleukin-12 (Sinofliologicals, Cat #CT011-H08H). After counting, cells were seeded at 100 000 cells/well in a 384 well titer plate and incubated at 37° C./5% CO2. […]
After 16-20 h incubation at 37° C./5% CO2, 5 μl of supernatant were carefully transferred to a 384 microwells OPTIPlate (Perkin Elmer; Cat #6007270) and Interferon-gamma (IFNγ) levels measured using the Human IFNγ AlphaLISA Assay Kit (Perkin Elmer, Cat #AL217C). […] AlphaLisa signal was then measured on an Enspire plate reader (Perkin Elmer) using 680 and 615 nm as excitation and emission wavelengths respectively. Half maximal effective concentration (EC50) was calculated based on a variable slope, four parameter analysis using GraphPad PRISM software.

Another experiment deals with His-tagged human PD1 (Homo sapiens, UniProt Q15116). The experiment is described as follows: Bio-Layer Interferometry (BLI) binding kinetics to PD-1 (Example 6). The conditions noted are these: AHC sensors, analyte His-tagged human PD1. The text has this:
Based on Bio-Layer Interferometry (BLI), Octet® BLI systems enable real-time, label-free analysis for the determination of kinetics and affinity of a ligands to its receptor. Here anti-human IgG FC Capture (AHC) sensors are loaded with the test items (ICs). Sensors are first dipped into a kinetic buffer for baseline measurement, then into an analyte solution, here human PD1, to allow association and again into a buffer solution where the analyte is allowed to come off the ligand (dissociation). Several concentrations of analyte are run in parallel and enable the calculation of affinity parameters: Ka, Kd, KD.
Typically, first, the sensors are regenerated by 3 cycles of dipping into 10 mM glycine solution at pH=2 for 20 seconds, followed by 20 second kinetics buffer and a final 60 seconds in kinetics buffer to establish the initial signal (baseline). Second, the loading column will contain the ligand, here the unmodified PD-1 antibodies and of IL-18 polypeptide conjugated PD-1 antibody, at a fixed concentration determined in the loading scout experiment (20 ug/mL). Then another wash/baseline step allows non immobilized proteins to be washed away. […] After acquisition, the data is analyzed with Data Analysis Studio software (Sartorius). […] Group fitting is then applied to the data series and kinetics parameters are calculated.

Sequence of His-tagged human PD1 (Q15116 25-288): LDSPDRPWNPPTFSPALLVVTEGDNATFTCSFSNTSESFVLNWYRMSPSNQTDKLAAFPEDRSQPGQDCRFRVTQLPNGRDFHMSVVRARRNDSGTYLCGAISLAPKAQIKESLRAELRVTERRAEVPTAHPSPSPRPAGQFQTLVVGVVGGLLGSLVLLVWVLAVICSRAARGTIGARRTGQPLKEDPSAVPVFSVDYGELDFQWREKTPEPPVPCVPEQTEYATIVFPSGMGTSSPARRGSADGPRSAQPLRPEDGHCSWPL

As usually defined, the EC50 is the concentration at which the effect is half-maximal. Consider “Composition B: immunocytokine: Atezolizumab/Tecentriq (anti-PD-L1) conjugated to IL-18 polypeptide SEQ ID NO: 30”, for which, in the experiment with NK92 cells, the EC50 came out at 1 pM. As to “LZM-009: anti-PD-1 antibody (VH SEQ ID NO: 376, VL SEQ ID NO: 377), unconjugated reference antibody [reference compound]”, in the experiment with His-tagged human PD1, the ka came to 342000 M⁻¹ s⁻¹ and the kd turned out to be 0.0077 s⁻¹.

The record behind these values is patent US12383631B2, “Immune antigen specific IL-18 immunocytokines and uses thereof” (Bright Peak Therapeutics AG, priority 2022, dated 2025).
